The values below are quoted from earlier work in publication PMC12055905.

A word on the Kd: it is the equilibrium constant for the complex coming apart.

In this series the target is SARS-CoV-2 spike RBD (SARS-CoV-2) (UniProt P0DTC2).

Turning to HBD-2 (from UniProt O15263), the Kd is 300 nM.
